± gives the uncertainty stated by the source.
B1: F-BAR and double SH3 domains protein 1, residues 467 to 528; numbered along this chain, Q86WN1 (parent)
chain: RALPCPAHVVFRYQAGREDELTITEGEWLEVIEEGDADEWVKARNQHGEVGFVPERYLNFPD

Variants of: B1
Assay: abundance fitness (aPCA) (normalised: wild type 0, dead -1); higher = more abundant; growth selection in yeast, the domain comes from the species named
Conditions: Homo sapiens
E25I gave an abundance fitness of -0.348 ± 0.22. E25F showed an abundance fitness of -0.37 ± 0.16. With E25Q the abundance fitness was -0.266 ± 0.24. E25H gave an abundance fitness of -0.176 ± 0.17. For E25S, the abundance fitness was 0.104 ± 0.11. For E25T, the abundance fitness was 0.038 ± 0.095. In the case of E25G, the abundance fitness is reported as -0.281 ± 0.1. Variant E25R has an abundance fitness of -0.328 ± 0.079. For E25M, the abundance fitness was -0.297 ± 0.2. For E25Y, the abundance fitness was 0.189 ± 0.26. Variant E25K has an abundance fitness of 0.139 ± 0.074. Variant E25C has an abundance fitness of -0.325 ± 0.17. E25V gave an abundance fitness of -0.154 ± 0.12. Variant E25L has an abundance fitness of -0.298 ± 0.069. With E25P the abundance fitness was -0.069 ± 0.12. E25D showed an abundance fitness of -0.014 ± 0.17. For E25W, the abundance fitness was -0.373 ± 0.12. For E25A, the abundance fitness was -0.129 ± 0.078. For L29H, the abundance fitness was -0.6 ± 0.33. For L29M, the abundance fitness was -0.508 ± 0.13. With L29V the abundance fitness was 0.102 ± 0.054. In the case of L29F, the abundance fitness is reported as -1.03 ± 0.33. For L29S, the abundance fitness was -0.491 ± 0.096. Work on L29D yielded an abundance fitness of -0.642 ± 0.25. Variant L29C has an abundance fitness of -0.819 ± 0.24. Work on L29I yielded an abundance fitness of -0.004 ± 0.14. With L29W the abundance fitness was -1.01 ± 0.21. L29T gave an abundance fitness of -0.782 ± 0.15. For L29A, the abundance fitness was -0.7 ± 0.12. Work on L29N yielded an abundance fitness of -0.577 ± 0.17. L29K gave an abundance fitness of -1.06 ± 0.26. Variant L29P has an abundance fitness of -0.688 ± 0.11. Work on L29G yielded an abundance fitness of -0.975 ± 0.18. L29R showed an abundance fitness of -0.728 ± 0.08. Work on V31Y yielded an abundance fitness of -0.431 ± 0.22. For V31G, the abundance fitness was -0.888 ± 0.087. With V31N the abundance fitness was -0.947 ± 0.23. In the case of V31D, the abundance fitness is reported as -0.992 ± 0.32. Work on V31I yielded an abundance fitness of -0.028 ± 0.067. V31R showed an abundance fitness of -0.743 ± 0.069. V31H gave an abundance fitness of -0.709 ± 0.15. V31S showed an abundance fitness of -0.683 ± 0.091. Work on V31K yielded an abundance fitness of -0.797 ± 0.14. V31T showed an abundance fitness of -0.778 ± 0.14. V31A gave an abundance fitness of -0.465 ± 0.075. In the case of V31P, the abundance fitness is reported as -0.969 ± 0.19. Variant V31W has an abundance fitness of -0.837 ± 0.11. For V31F, the abundance fitness was -0.991 ± 0.19. In the case of V31L, the abundance fitness is reported as -0.454 ± 0.057. V31Q gave an abundance fitness of -1.03 ± 0.34. For V31M, the abundance fitness was -0.501 ± 0.12. In the case of I23T, the abundance fitness is reported as -0.227 ± 0.076. Variant I23E has an abundance fitness of -0.833 ± 0.13. With I23K the abundance fitness was -0.718 ± 0.097. Variant I23Q has an abundance fitness of -0.936 ± 0.13. I23F gave an abundance fitness of -0.791 ± 0.1. In the case of I23Y, the abundance fitness is reported as -0.958 ± 0.17. For I23C, the abundance fitness was -0.228 ± 0.076. Work on I23N yielded an abundance fitness of -1.18 ± 0.36. Variant I23R has an abundance fitness of -0.751 ± 0.069. With I23M the abundance fitness was -0.269 ± 0.045. Variant I23A has an abundance fitness of -0.705 ± 0.085. For I23G, the abundance fitness was -0.588 ± 0.098. Work on I23W yielded an abundance fitness of -0.572 ± 0.1. Work on I23D yielded an abundance fitness of -0.739 ± 0.19. For I23S, the abundance fitness was -0.719 ± 0.064. With I23V the abundance fitness was -0.014 ± 0.045. G26D gave an abundance fitness of -0.047 ± 0.087. Variant G26Y has an abundance fitness of -0.564 ± 0.13. G26N gave an abundance fitness of -0.195 ± 0.15. In the case of G26P, the abundance fitness is reported as -0.776 ± 0.1. In the case of G26H, the abundance fitness is reported as -0.389 ± 0.16. Variant G26Q has an abundance fitness of -0.34 ± 0.13. For G26R, the abundance fitness was -0.558 ± 0.07. In the case of G26L, the abundance fitness is reported as -0.741 ± 0.092. Variant G26W has an abundance fitness of -0.474 ± 0.11. Variant G26M has an abundance fitness of -0.701 ± 0.11. For G26T, the abundance fitness was -0.871 ± 0.2. G26A showed an abundance fitness of -0.501 ± 0.078. For G26V, the abundance fitness was -0.942 ± 0.15. Work on G26F yielded an abundance fitness of -0.871 ± 0.2. For Q14A, the abundance fitness was -0.153 ± 0.063. Variant Q14D has an abundance fitness of 0.014 ± 0.086. In the case of Q14I, the abundance fitness is reported as -0.261 ± 0.082.
